Data: publication PMC2174547 (The Journal of Cell Biology, 2000)
Values joined by “and” are separate entries in the source; they are usually repeats but may differ in a detail not shown here. Equal values may be shown once.

T1: 6xHis-PEX19 (human, UniProt P40855 1-299)
T1 sequence: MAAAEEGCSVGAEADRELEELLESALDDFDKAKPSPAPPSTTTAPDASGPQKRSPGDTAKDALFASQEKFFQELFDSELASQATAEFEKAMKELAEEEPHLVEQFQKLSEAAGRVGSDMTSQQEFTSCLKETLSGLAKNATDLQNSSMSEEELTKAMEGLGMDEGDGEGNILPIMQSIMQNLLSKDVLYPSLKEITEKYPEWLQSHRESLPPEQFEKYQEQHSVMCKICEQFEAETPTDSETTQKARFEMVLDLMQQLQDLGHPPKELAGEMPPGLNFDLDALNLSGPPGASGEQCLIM

B1: 6xHis-PEX14 amino acids 1–147 (domain or fragment)
chain: MASSEQAEQPSQPSSTPGSENVLPREPLIATAVKFLQNSRVRQSPLATRRAFLKKKGLTDEEIDMAFQQSGTAADEPSSLGPATQVVPVQPPHLISQPYSPAGSRWRDYGALAIIMAGIAFGFHQLYKKYLLPLILGGREDRKQLER

How the values were obtained:
[1] = target: 6xHis-PEX19 (human) (UniProt P40855); assay: far-Western, overlay or dot blot
[2] = target: T1, 6xHis-PEX19; assay: far-Western, overlay or dot blot

Molecule	Kd [1]	IC50 [2] [nM]
6xHis-PEX14 (from UniProt O75381 1-377) (natural protein)	350 nM and 800 nM and 500 nM	
B1		30000
